Legend:
Assay in all cases: direct ELISA, tau peptide coated on plate
tau peptide 352-380 = target: T1, tau peptide 352-380 (human)
T1 construct: Synthetic peptide (EZBiolabs), numbered on tau 2N4R
T1 peptide: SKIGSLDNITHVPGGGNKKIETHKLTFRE

tau peptide 314-342 = target: T2, tau peptide 314-342 (human)
T2 construct: Synthetic peptide (EZBiolabs), numbered on tau 2N4R
T2 peptide: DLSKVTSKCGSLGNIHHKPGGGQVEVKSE

tau peptide 282-311 = target: T3, tau peptide 282-311 (human)
T3 construct: Synthetic peptide (EZBiolabs), numbered on tau 2N4R; also called peptide derived from MTBRII
T3 peptide: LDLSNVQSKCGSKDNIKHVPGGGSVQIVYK

tau peptide 256-285 = target: T4, tau peptide 256-285 (human)
T4 construct: Synthetic peptide (EZBiolabs), numbered on tau 2N4R
T4 peptide: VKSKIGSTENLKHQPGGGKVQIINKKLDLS

Measured: binding result

B1: chimeric DC8E8 (isotype not stated where tested) (antibody)
VH: QVQLQQSGPELVKPGTSVKMPCKASGYIFTDYVISWVKQRTGQGLEWIGEIFPRSGSTYYNEKFKGKATLTADKSSNTAYMQLSSVTSEDSAVYFCARDYYGTSFAMDYWGQGTSVTVSS
light: DIVMSQSPSSLAVSAGEKVTMSCKSSQSLLNSRTRKNYLAWYQQKPGQSPKLLIYWASTRESGVPDRFTGSGSGTDFTLTISSVQAEDLAVYYCKQSFYLRTFGGGTKLDIKRTVAAPSVFIFPPSDEQLKSGTASVVCLLNNFYPREAKVQWKVDNALQSGNSQESVTEQDSKDSTYSLSSTLTLSKADYEKHKVYACEVTHQGLSSPVTKSFNRGEC
notes: Whole chimeric antibody with human constant regions; also called chimeric antibody
binds: all assays above

B2: mouse monoclonal antibody DC8E8 (antibody, mouse IgG1)
heavy: QVQLQQSGPELVKPGTSVKMPCKASGYIFTDYVISWVKQRTGQGLEWIGEIFPRSGSTYYNEKFKGKATLTADKSSNTAYMQLSSVTSEDSAVYFCARDYYGTSFAMDYWGQGTSVTVSSAKTTPPSVYPLAPGSAAQTNSMVTLGCLVKGYFPEPVTVTWNSGSLSSGVHTFPAVLQSDLYTLSSSVTVPSSTWPSQTVTCNVAHPASSTKVDKKIVPRDCGCKPCICTVPEVSSVFIFPPKPKDVLTITLTPKVTCVVVDISKDDPEVQFSWFVDDVEVHTAQTKPREEQINSTFRSVSELPIMHQDWLNGKEFKCRVNSAAFPAPIEKTISKTKGRPKAPQVYTIPPPKEQMAKDKVSLTCMITNFFPEDITVEWQWNGQPAENYKNTQPIMDTDGSYFVYSKLNVQKSNWEAGNTFTCSVLHEGLHNHHTEKSLSHSPGK
VL: DIVMSQSPSSLAVSAGEKVTMSCKSSQSLLNSRTRKNYLAWYQQKPGQSPKLLIYWASTRESGVPDRFTGSGSGTDFTLTISSVQAEDLAVYYCKQSFYLRTFGGGTKLDIK
notes: also called murine DC8E8; mouse DC8E8
binds: tau peptide 352-380 | tau peptide 314-342 | tau peptide 256-285

— patent publication US20180142007A1 (AXON NEUROSCIENCE, published 2018)
